# B1: ORKIFNg-002 (Foldikine-IFNG, single chain dimeric IFN gamma) (ligand)
# chain: GSQDPYVKEAENLKKYFNAGHSDVADNGTLFLGILKNWKEESDRKIMQSQIVSFYFKLFKNFKDDQSIQKSVETIKEDMNVKFFNSNKKKRDDFEKLTNYSVTDLNVQRKAIHELIQVMASKPHPGQLWAYVKEAENLKKYFNAGHSDVADNGTLFLGILKNWKEESDRKIMQSQIVSFYFKLFKNFKDDQSIQKSVETIKEDMNVKFFNSNKKKRDDFEKLTNYSVTDLNVQRKAIHELIQVMAELSPAA
# Molecular target: T1, IFN-gamma receptor on HEK-Dual cells (Human IFN-γ SEAP/Luciferase Reporter Cells, hkd-ifng)
# T1 sequence (P15260 whole entry, looked up): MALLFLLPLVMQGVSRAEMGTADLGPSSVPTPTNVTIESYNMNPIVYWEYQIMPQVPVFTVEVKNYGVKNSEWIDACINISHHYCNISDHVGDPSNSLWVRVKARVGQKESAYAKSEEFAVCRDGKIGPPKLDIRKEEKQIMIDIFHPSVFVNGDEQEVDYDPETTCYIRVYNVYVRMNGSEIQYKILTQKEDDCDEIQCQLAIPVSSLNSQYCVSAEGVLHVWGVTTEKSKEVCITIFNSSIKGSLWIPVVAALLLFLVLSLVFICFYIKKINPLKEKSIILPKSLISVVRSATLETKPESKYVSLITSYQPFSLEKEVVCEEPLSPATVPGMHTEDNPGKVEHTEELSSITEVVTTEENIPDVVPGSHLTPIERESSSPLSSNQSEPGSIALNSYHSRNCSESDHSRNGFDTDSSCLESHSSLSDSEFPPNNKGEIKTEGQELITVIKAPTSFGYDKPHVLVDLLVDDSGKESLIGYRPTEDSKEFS
# T1 sequence (P38484 whole entry, looked up): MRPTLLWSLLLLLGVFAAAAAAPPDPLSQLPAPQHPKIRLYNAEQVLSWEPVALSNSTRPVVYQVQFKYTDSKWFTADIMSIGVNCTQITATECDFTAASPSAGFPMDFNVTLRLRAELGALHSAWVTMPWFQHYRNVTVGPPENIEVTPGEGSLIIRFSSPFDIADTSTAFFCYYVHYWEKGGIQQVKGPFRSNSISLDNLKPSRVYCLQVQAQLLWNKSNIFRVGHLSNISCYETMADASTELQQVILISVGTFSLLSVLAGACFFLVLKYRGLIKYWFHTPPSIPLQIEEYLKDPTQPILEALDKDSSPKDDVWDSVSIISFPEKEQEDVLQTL
# Test: cell-based or functional assay
binder,measurement,value
B1,EC50 (HEK Dual cells responding to IFNγ),0.0328 nM
